# Source: a protein production outcome set (Wang et al. 2014)
# Experiment: label from the status in PepcDB records
row,Sequence,protein production
1,MVIGVTGKIGTGKSTVCEILKNKYGAHVVNVDRIGHEVLEEVKEKLVELFGGSVLEDGKVNRKKLAGIVFESRENLKKLELLVHPLMKKRVQEIINKTSGLIVIEAALLKRMGLDQLCDHVITVVASRETILKRNREADRRLKFQEDIVPQGIVVANNSTLEDLEKKVEEVMKLVWEKRE,not failed
2,MVIQEGFSFGNFIIDVFSIFLFILWFWLLITISGDLFRRHDVSGFAKVLWVIFLIVLPYIGVFAYILTQGRGMAERNQERAREARNELRQVVGFSVADELEKLDRLKASGSISEDEFKRLRAKLVE,failed
3,MVIQIVIISPGDGNLSPAHLLHRFALSLLESLRGKKMMFVGTEEMYLSLICLLHSQIPENYKSMDYLWITHRLLSQDLEILVDYNAMIEFYWAPFLLESNSDNAIVDIVSDRIMRKGLINKHGKHWRGADIVVESSFKDGNKRIVEMESEDAYLMTMGKWVKKSMDPLRTKVFFSTMSPTHYKIEDWGGEQGKNFYNQTTPIQDMNHWPSDCSKTLMKVIGEELDQRADFLVTVLNITQLTSYRKDAHTSIYKKPWSPYDEGSASKSG,failed
4,MVIRRLYQFCASHVVRNCSSLKCAQNIHGHNYEVEVFIETNRLDNANMALDFGLMQQEMQVFIESFDHAHHFWDKESLEFQRFIENHCVRYVKCSFNLSAESYALMFLYYLTKILQKSVFSNDEGELKVSSVRVHETKNGYAESFLKDLENPHFKSLVHDHCVSFSQGIQNLWHDKDFFNKIISDEKQCFFHAKPLHQIP,failed
5,MVISSKITDDCSYVKCLSFMMKSRTGNILLAQPENLAHDDDLSQSLLSQVTAVWLWTSLSYGGKPIFNRGISQLVTKKWTIIFNTENTNNHVSLPAPQEISPRLRLASSGTWRLVIGTWE,failed
6,MVITGKFAMYVTAFVVTVSLIEAFVLWRKRRDGVKPFSWNEVWLSLADLAGRKLSVLLPLSLAAPVFSFAWDHRLFTITLNSALAVFLLFVGQEFCYYWYHRAAHRIRFFWATHAVHHSPNQLTLTSAYRLGWTGKLTGSAVFFAPLVLLGVRPEVVLATLSLNLLYQFWLHNDWMPKLGWFEYVFNTPSAHRVHHASNIDYLDANYGGVLIIFDRLFGTYVEERADEPCRYGLVHPTTTQNPIVNQFEHWVSLGRDMASASKLWHAAAYLIMPPGWAPNGKGTTTEILRRQQEELRQAGWQRPGVV,failed
7,MVITNFLILLLGLVFLVKGSDYFVKSASSIAKKLGISEFIIGLTLVAVGTSIPELASSMAASIQQASGIVIGNVVGSNIANIGLIVGIAAFLSPMKTEVEMLRRDGYIMLFAALLFFAFALNGELSKIEAGLFLLLYIAYTFFLFEETDKHEGKLYFKEFIKYFVKFQYINSARQKINGINNGVSRTNGDSGNKNCQPKNSFSKDILALILSCAAIIIGAKYFVSESIFFAELLGIPDTIIGTTLVAIGTSLPELAVTVSAARQGYGNIALGNIIGSNITNILMILGVSGLLFPIAVAEISLVFTAPVMIFISVVLLIFISTGWEIKRWEGAALMSLYAAFLFVLFRIS,failed
8,MVIYDLHESTYKQEVYCNIPDATSWSFPNGVLIKVVRGCWILYEKPHFRGQKCVLEEGEKVLNRDWILQNRRHPQRNFILGSLKRVLKDCSIPEIELFPQSDPACCPVYIQRAVPNLEELNISKSVSFTVKSGVWLAYPDINFKGQATVLEEDHGLFEISTAEMKSLHPLQMGGLKVEMPMNLKVIIYEKPHFHGQAKEFSEHIDSVPNFLKNNGDFHRIGSIRVIGGVWVAYEKEHFKGQQFLLEEGDFEDSNACGALSSPILSFRYLQANFIESSVTLFESDLESGKFIDITNQEISDLEEIGFGSKTRSIHVKSGVWVAYQQKFFCGEQYILEKGKYKCFFDWGGSNNIIMSIRPIQLEPLGINEPPHLLKAFSKPGFQGECIDFTEETSDLTPLMPCSFKVLRGCWLLYYQEDMFVNHCVLEEGLYADLTSCGCPASKVKSLKPIDYVFEEPSISLFALEHCEGRELHLEEAVNSVLNKDLHFYTQSVWVKSGLWIAYEGSNFLGRQILLRPNEIPNWTAFSRWKTIGSLRPMKQPAVYIRIKNRAQGEYLTVTGSLADTRATSVCISPYSGKHTQIWYYCRGLFKSKASDTCLDVIGGRDTPGAKVALWTEHGQFRQKWRLNKNGTISSYLSDQLVLDVKGGNYCDKTHVIVNQPLEGEETQKWDIEIL,failed
9,MVKATKAEKKIAYDTKLCQLIDEYTQILVVAADNVGSTQLQNIRKGLRGDSVVLMGKNTMMKRSVRIHSENTGNTAILNLLPLLQGNVGLIFTKGDLKEVSEEVAKYKVGAPARVGLVAPIDVVVQPGNTGLDPSQTSFFQVLNIPTKINKGTVEIITPVELIKQGDKVGSSEAALLAKLGIRPFSYGLVVQSVYDNGSVFSPEVLDLTEDQLVEKFASGISMVTSLALAVSYPTLAAAPHMFINAYKNALAIAVATEYTFPQAEKVKEYLKDPSKFAVASVAAVSADAGGGAPAAAKVEEKEESDEEDYGGDFGLFDEE,failed
10,MVKEPGGKHVLCVGAAVLDTLFRVADMPKGEGKVLPYEVLQIAEGMASSAAYAVHRMGGRASLWGAVGDDETGTRILRDLSESGIDTSGMTVAPGARSALSTIIIDNRGERLIVPFYDHRLHEKKRACTPEDIALFDAVLVDVRWPELALDVLTVARALGKPAILDGDVAPVETLEGLAPAATHIVFSEPAATRLTGLETVKDMLPVLHARYPQTFIAVTAGPAGCWWTEADDPTVHFQTTMQVEAVDTLAAGDIFHGTFALAMAEGMQSRAAVRLSSVAAALKCTVFGGRIGAPTREETEEAMRQWLERESEPALRAS,not failed
11,MVKHHHLYELSPMVTGWTICVMVLRIYKKFLNLNAFELRLVLADEWGTQIEATIGPRFSAFYFDRIKENQWKTITTFLVRPNCEAIKTTPHQFRILFMDHTIVTSSTPRETGLLNKFTPFDYIVDDVVGNDTLVDLIGALVNVGILTNTASNENDMAGFKLPFTIMDKNKDTLVCEAYGEIAVDLEKRFRAFRKNNVVIALAWWKILRFYPVAAIPEVYLLAPMLAKIVSYVAESGVDSLKSFVKAGLLFKAAVYSKETLSCVRLDRSWYFMLAFHMCELQEAIAILDGIKDVFPHAGLLYIMLHSCAGSIPWEFYRMYKRRYYKFSEVDLFADKLMFHINEVGPRRQGTYKNS,failed
12,MVKHIVLFKLRDDVPVEEKLVVMNSFKEAIEALPAKISVIRKIEVGLNMNPGETWNIALYSEFDNLDDVKFYATHPEHVAAGKILAETKESRACVDYEF,not failed
13,MVKIAASILACDLARLADEVKRVEEHVDMIHFDVMDGHFVPNISFGLPVLKALRKETKLPISVHLMITNPEDYIDRFIEEGADMVAIHYESTFHLHRLVHRVKDLGARAFVAINPHTPINLLSEIITDVDGVLVMSVNPGFSGQRFIARSLEKIRNLRKMVKELGLETEIMVDGGVNEENASILVKNGATILVMGYGIFRNDNYVELIKSIKQEREEFAD,not failed
14,MVKKMKSKTISTIHIDTFSIPFPFVAMSNKVCRGYTLIRAFGITALAILILVGIAGAAPFAYVTNIGDYDQRGPNVAVIDTATNNVTARVPLGGGWPVGVAVNPAGTKIYVVDSPSDSTVYVIDTATNKVSAKVNLGSSYPARITFNPAGTRVYVTKQHDYTDIFVINPATNTLMAPIIVGPSTYGIAFTPDGKKIYAANCNNNTIYVIDAATNKVTANISVGDSPCGIAVTPDGKKVYVLNYDSNTVSVINTATDNVIATVPVGNSPNLVAVTSNGNKVYVANNNTVSVIDTATNNVIATIPVGTSSRKIVINPDGNRVYLVNFGSNSVSVIDTATDNVIANVPVGEQPMGIAVTPDGKRVYVTNSRSSNVSVIDTATDTVAATVNAGILPTGVVIVPLTDSDMTSQSTGAISSSTEDRGIEVTNISSSEEINAVELNNYSDENNPESDNDNGSNANDSSKNNSTPGFGLLESLAGLYVGWKLGKR,failed
